Literature values as cited in article PMC2892843.

Target: NgR1 (UniProt Q9BZR6)
Chain of UniProt Q9BZR6 (Q9BZR6 27-447): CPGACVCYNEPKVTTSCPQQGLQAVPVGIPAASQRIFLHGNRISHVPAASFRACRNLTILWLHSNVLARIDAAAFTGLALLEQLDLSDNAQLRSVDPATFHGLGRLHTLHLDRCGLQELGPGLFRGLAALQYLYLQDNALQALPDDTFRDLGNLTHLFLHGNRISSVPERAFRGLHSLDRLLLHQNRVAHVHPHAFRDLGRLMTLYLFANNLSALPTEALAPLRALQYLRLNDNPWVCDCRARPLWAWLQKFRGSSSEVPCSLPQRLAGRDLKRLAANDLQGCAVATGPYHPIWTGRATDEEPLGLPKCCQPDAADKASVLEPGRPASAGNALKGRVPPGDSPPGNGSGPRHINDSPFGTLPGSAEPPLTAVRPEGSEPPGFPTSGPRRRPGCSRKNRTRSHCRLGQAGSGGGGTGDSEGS

MAG (from UniProt P20916)
Kd: 10 nM
